Results reported in US20140314667A1, “METHODS OF TREATING EPIDERMAL GROWTH FACTOR DELETION MUTANT VIII RELATED DISORDERS” (AMGEN INC., priority 2011, published 2014).
One block for each molecule: values may come before it.

Experiments:
EGFRvIII-peptide-OVA = biological target: T1, EGFRvIII-peptide-OVA (Homo sapiens, UniProt P00533, DELINS30-297G); test: B-cell culture supernatant ELISA on EGFRvIII-peptide-OVA; format: binding
T1 construct: 207 μg of EGFRvIII PEP3 was reduced; host or cells: synthetic peptide, chemical conjugation
Experimental: B-cells from the above-discussed animals were harvested and cultured. Those secreting EGFRvIII-peptide specific antibodies were isolated as described in Babcook et al., Proc. Natl. Acad. Sci. USA, 93:7843-7848 (1996). ELISA was used to identify primary EGFRvIII-peptide-OVA-specific wells. About 5 million B-cells were cultured from XenoMouse animals in 24596 well plates at 500 or 150 or 50 cells/well, and were screened on EGFRvIII-peptide-OVA to identify the antigen-specific wells.
(§1) 244 of EGFRvIII-peptide-OVA-Elisa positive wells of OD >0.5 were screened again on EGFRvIII-peptide-OVA and on OVA to confirm that they were EGFRvIII-peptide specific.

[1] = biological target: T2, NR6 Wt cells (NR6 cells expressing EGF receptor) (Homo sapiens, UniProt P00533); test: Native cell binding assay by FMAT, NR6 Wt cells
T2 construct: expressed in transfected cells; host or cells: NR6 cells (NR6 Wt)
From the text: The same type of native binding assay was done on NR6 Wt cells (NR6 cells expressing EGF receptor) (See Batra et al. Epidermal growth factor ligand-independent, unregulated, cell-transforming potential of a naturally occurring human mutant EGFRvIII gene. Cell Growth Differ. 6(10):1251-9 (1995)) to eliminate the binding is due to binding to Wt receptor (Table 3.8). ABX-EGF was used as a positive control and PK 16.3.1 at the same concentration was used as a negative control antibody. 3 out the 134 NR6 M binders were binding strongly to NR6 Wt cells. 190 of the 244 wells bound EGFRvIII peptide in Elisa were also bound to the native form on cells.
In this example, binding of anti-EGFRvIII antibodies to NR6 M cells was measured. Specifically, unquantitated supernatants of XenoMax derived IgG1 recombinant antibodies were assayed for their ability to bind to NR6 M and NR6 WT cells. Cells were seeded at 10000/well and incubated overnight at 37 C in FMAT 96 well plates. Media was removed and 40 μl mini lipo supernatant (titrated down) was added, the cells were incubated on ice for 1 hr. […] The PK 16.3.1 antibody was used as a negative control. The cells were washed with Cold PBS, secondary antibody was added (SS Alexa antihuman IgG Fc) at 1 μg/ml, 40 μl/well and incubated on ice for 1 hr. The cells were then washed with Cold PBS and fixed and read by FMAT. All antibodies were tested for specificity for binding by counter screening against NR6 WT cells.

[2] = biological target: T3, EGFRvIII receptor in NR6 M cells (Homo sapiens, UniProt P00533, DELINS30-297G); test: Internalization of EGFRvIII receptor by recombinant mAbs (FACS); format: cell-based; conditions: 0.25 μg/ml antibody, 1 hr
T3 construct: NR6 M cells stably expressing full length EGFRvIII; expressed in transfected cells; host or cells: NR6 cells (NR6 M)
Experimental: XenoMax derived IgG1 recombinant antibodies were expressed, purified and quantitated as described previously. Antibodies were further assayed for their ability to internalize the EGFRvIII receptor in NR6 M cells. […] The cells were washed with cold 10% FCS in PBS and secondary antibody (SS Alexa antihuman IgG Fab) at 3 μg/ml Fab was added and incubated for 7 mins on ice. The cells were washed with cold 10% FCS in PBS once and then resuspended in cold media. Next, two sets of the triplicate were incubated at 37° C. and the remaining set was incubated at 4° C. for 1 hr. After that the cells incubated at 4° C. and one set of the cells incubated at 37° C. were treated with glutathione (as previously mentioned) for 1 hr on ice. Then the cells were washed and resuspended in 100 μl of cold 1% FCS in PBS and analyzed by FACS. The % internalization was calculated from the geometric mean obtained from the FACS analysis [(mean at 37° C. with glutathione−mean at 4° C. with glutathione)/(mean at 37° C. without glutathione−mean at 4 C with glutathione)].

[3] = biological target: T4, EGFRvIII expressing cells (H1477) (Homo sapiens, UniProt P00533, DELINS30-297G); test: Selectivity for EGFRvIII expressing cells compared to ABX-EGF; format: binding
T4 construct: host or cells: H1477 cells

OVA = biological target: T5, OVA (Gallus gallus, UniProt P01012); test: B-cell culture supernatant ELISA on OVA (specificity control); format: binding; conditions: Table 3.8
T5 sequence (P01012 1-386): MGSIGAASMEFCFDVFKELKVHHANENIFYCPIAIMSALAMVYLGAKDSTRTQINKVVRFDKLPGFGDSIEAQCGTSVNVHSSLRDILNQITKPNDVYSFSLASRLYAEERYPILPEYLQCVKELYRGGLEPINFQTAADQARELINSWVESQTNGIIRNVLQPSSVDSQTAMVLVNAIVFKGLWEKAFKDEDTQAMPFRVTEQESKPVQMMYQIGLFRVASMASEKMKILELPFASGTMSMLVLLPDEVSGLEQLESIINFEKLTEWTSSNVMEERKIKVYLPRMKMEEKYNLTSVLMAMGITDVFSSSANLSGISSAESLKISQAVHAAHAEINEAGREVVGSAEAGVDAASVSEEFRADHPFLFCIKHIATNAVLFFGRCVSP
From the text: as §1

[4] = biological target: T6, native form of EGFRvIII stably expressed on NR6 cells (NR6 M cells) (Homo sapiens, UniProt P00533, DELINS30-297G); test: Native cell binding assay by FMAT, NR6 M cells; conditions: total fluorescent intensity
T6 construct: NR6 M cells stably expressing full length EGFRvIII; expressed in transfected cells; host or cells: NR6 cells (NR6 M)
Experimental: EGFRvIII peptide-OVA-Elisa positive well supernatants were analyzed for their ability to bind to the native form of EGFRvIII stably expressed on NR6 cells (NR6 M cells) (See, Batra et al. Epidermal growth factor ligand-independent, unregulated, cell-transforming potential of a naturally occurring human mutant EGFRvIII gene. Cell Growth Differ. 6(10):1251-9 (1995)). NR 6 M cells were seeded at 8000 cells per well and incubated over night in 96 well FMAT plates. Media was then removed leaving 15 μl in the well. 15 μl B-cell culture supernatants were added and 15 μl anti-human IgG Fc Cy5 at 1 μg/ml final concentration added to wells. It is then left incubated at 4° C. for 2 hours. The cells were washed with 150 μl PBS, and fixed before reading on FMAT. The results were expressed as total fluorescent intensity (Table 3.8).

[5] = biological target: T7, EGFRvIII receptor on NR6 M cells (Homo sapiens, UniProt P00533, DELINS30-297G); test: Internalization assay (FMAT, glutathione) of B cell culture supernatants; format: cell-based
T7 construct: NR6 M cells stably expressing full length EGFRvIII; expressed in transfected cells; host or cells: NR6 cells (NR6 M)
Experimental: The top 60 native binding B cell culture supernatants were further assayed for their ability to internalize the receptor. NR6 M cells were seeded at 8000 cells/well into 96 well FMAT plates and incubated overnight. Media was removed and 10-15 μl B-Cell culture supernatant in a total volume of 30 μl media, in duplicate was added. Next, 15 μl of secondary antibody (SS Alexa 647 anti-human IgG Fab at 1.5 μg/ml final concentration) was added and the mixture was incubated on ice for 1 hr. An irrelevant B-Cell Culture supernatant was used to see the effect of the culture media. Human anti-EGFRvIII mAb 13.2.1 was used as a positive control starting at 1 μg/ml (final concentration) and negative control was PK 16.3.1 (human anti-KLH IgG2 antibody) at the same concentration. After incubation, the cells were washed with cold PBS, 50 μl media was added to all of the wells, one of the duplicates were incubated at 37° C. for 30 mins while the other duplicate remained on ice. After the incubations media was removed, 100 ul of cold 50 mM glutathione was added to the set incubated at 37° C. and 100 μl of cold media added to the other set, both sets were then left on ice for 1 hr. The cells were then washed with 100 μl cold PBS and then fixed with 1% paraformaldehyde and read in FMAT. The results were expressed as % internalized, calculated as total fluorescence in the presence of glutathione/total fluorescence in the absence of glutathione×100.

binding with the pep3 (EGFRvIII-peptide-OVA; XenoMax approach, in words): highly specific | FACS Geometric mean With glutathione 4° C. [2]: 4.88 | FACS Geometric mean With glutathione 37° C. [2]: 19.23 | selectivity for EGFRvIII expressing cells (H1477) as compared to ABX-EGF [3]: superior selectivity
B1: 139: XenoMax derived anti-EGFRvIII antibody, SEQ ID NO: 10/25 (antibody, listed as Homo sapiens, V domains shown)
VH: EVQVLESGGGLVQPGGSLRLSCAASGFTFSSYAMSWVRQAPGKGLEWVSAISGSGGSTNYADSVKGRFTISRDNSKNTLYLQMNSLRAEDTAVYYCAGSSGWSEYWGQGTLVTVSS
VL: DIQMTQSPSSLSASVGDRVTITCRASQGIRNNLAWYQQKPGKAPKRLIYAASNLQSGVPSRFTGSGSGTEFTLIVSSLQPEDFATYYCLQHHSYPLTSGGGTKVEIK
cross-reactivity with wild type EGFR ([1]; XenoMax approach, in words): limited cross-reactivity with wild type EGFR

1′ VIII-pep-OVA OD (EGFRvIII-peptide-OVA; Table 3.8): 2.1501 | 2′ VIII-pep-OVA OD (EGFRvIII-peptide-OVA; Table 3.8): 2.8208 | OVA OD (OVA): 0.1515 | FMAT native binding to NR6 M cells [4]: 84024 | FMAT native binding to NR6 Wt cells ([1]; total fluorescent intensity): 0 | % internalized, (glut+/glut−) × 100 ([5]; 37° C. for 30 mins): 31.5% | With glutathione FL1xcount ([5]; 37° C. for 30 mins, 50 mM glutathione): 8708 | No glutathione FL1xcount ([5]; kept on ice, no glutathione): 27648
B2: 129A7: XenoMax derived anti-EGFRvIII antibody, heavy chain of 124 (SEQ ID NO: 13), light chain of 123 (SEQ ID NO: 29) (antibody, listed as Homo sapiens, V domains shown)
VH: QVQLVESGGGVVQPGRSLRLSCAASGFTLSSYGMHWVRQAPGKGLEWVAVMSYDGSKEDYADSVKGRFTISRDNSENTLYLQMNSLRAEDTAVYYCVSEGYCSSRSCYKYYYYGMDVWGQGTTVTVSS
VL: DIVMTQSPLSLPVTPGEPASISCRSSQSLLYRNGNNYLDWYLQKPGQSPQLLIYLGSNRASGVPDRFSGSGSGTDFTLNISRVEAEDVGHYYCMQALQTPRTFGQGTKVEIK
